Patent US7067109

Molecular target: anti-VCAM-1•tTF coaguligand (anti-VCAM-1 antibody covalently linked through SMPT to truncated tissue factor) (human) (UniProt P13726)
Assay: 125I-labeled 10H10 on anti-VCAM-1•tTF-treated IL-1α-activated bEnd.3 cells

Sequence of UniProt P13726 (P13726 other isoform, or with tags, fused parts or gaps): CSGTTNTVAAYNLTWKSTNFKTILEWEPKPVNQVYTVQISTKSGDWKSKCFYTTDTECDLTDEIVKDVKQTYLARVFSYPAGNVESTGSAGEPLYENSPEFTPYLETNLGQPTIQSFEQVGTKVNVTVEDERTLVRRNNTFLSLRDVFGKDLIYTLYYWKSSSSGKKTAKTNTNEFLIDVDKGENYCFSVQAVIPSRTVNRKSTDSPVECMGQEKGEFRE

What does the source list for “10H10, mouse monoclonal antibody against human tissue factor”?
amount of antibody bound to the cells at saturation: 8.7 fmol; molecules of antibody bound per cell at saturation (molecules per cell): 540000
